Measurements from patent US20060263802A1 (CRUCELL HOLLAND B V, published 2006).

What was measured:
Test in all cases: PEPSCAN ELISA, looped peptide, antibody 10 µg/ml
[1] = target: looped/cyclic peptide … (rabies virus strain ERA)
[2] = target: looped/cyclic peptide … (rabies virus strain ERA); remark: listed apart in the source
[3] = target: looped/cyclic peptide … (rabies virus strain ERA); remark: listed apart in the source
[4] = target: looped/cyclic peptide … (rabies virus strain ERA); remark: listed apart in the source
[5] = target: looped/cyclic peptide … (rabies virus strain ERA); remark: listed apart in the source
[6] = target: looped/cyclic peptide … (rabies virus strain ERA); remark: listed apart in the source
[7] = target: looped/cyclic peptide … (rabies virus strain ERA); remark: listed apart in the source
[8] = target: looped/cyclic peptide … (rabies virus strain ERA); remark: listed apart in the source
[9] = target: looped/cyclic peptide … (rabies virus strain ERA); remark: listed apart in the source
[10] = target: looped/cyclic peptide … (rabies virus strain ERA); remark: listed apart in the source
[11] = target: looped/cyclic peptide … (rabies virus strain ERA); remark: listed apart in the source
[12] = target: looped/cyclic peptide … (rabies virus strain ERA); remark: listed apart in the source
[13] = target: looped/cyclic peptide … (rabies virus strain ERA); remark: listed apart in the source
[14] = target: looped/cyclic peptide … (rabies virus strain ERA); remark: listed apart in the source
[15] = target: looped/cyclic peptide … (rabies virus strain ERA); remark: listed apart in the source
[16] = target: looped/cyclic peptide … (rabies virus strain ERA); remark: listed apart in the source
[17] = target: looped/cyclic peptide … (rabies virus strain ERA); remark: listed apart in the source
[18] = target: looped/cyclic peptide … (rabies virus strain ERA); remark: listed apart in the source
[19] = target: looped/cyclic peptide … (rabies virus strain ERA); remark: listed apart in the source
[20] = target: looped/cyclic peptide … (rabies virus strain ERA); remark: listed apart in the source
[21] = target: looped/cyclic peptide … (rabies virus strain ERA); remark: listed apart in the source
[22] = target: looped/cyclic peptide … (rabies virus strain ERA); remark: listed apart in the source
[23] = target: looped/cyclic peptide … (rabies virus strain ERA); remark: listed apart in the source
[24] = target: looped/cyclic peptide … (rabies virus strain ERA); remark: listed apart in the source
[25] = target: looped/cyclic peptide … (rabies virus strain ERA); remark: listed apart in the source
[26] = target: looped/cyclic peptide … (rabies virus strain ERA); remark: listed apart in the source
[27] = target: looped/cyclic peptide … (rabies virus strain ERA); remark: listed apart in the source
[28] = target: looped/cyclic peptide … (rabies virus strain ERA); remark: listed apart in the source
[29] = target: looped/cyclic peptide … (rabies virus strain ERA); remark: listed apart in the source
[30] = target: looped/cyclic peptide … (rabies virus strain ERA); remark: listed apart in the source
[31] = target: looped/cyclic peptide … (rabies virus strain ERA); remark: listed apart in the source
[32] = target: looped/cyclic peptide … (rabies virus strain ERA); remark: listed apart in the source
[33] = target: looped/cyclic peptide … (rabies virus strain ERA); remark: listed apart in the source
[34] = target: looped/cyclic peptide … (rabies virus strain ERA); remark: listed apart in the source
[35] = target: looped/cyclic peptide … (rabies virus strain ERA); remark: listed apart in the source
[36] = target: looped/cyclic peptide … (rabies virus strain ERA); remark: listed apart in the source
[37] = target: looped/cyclic peptide … (rabies virus strain ERA); remark: listed apart in the source
[38] = target: looped/cyclic peptide … (rabies virus strain ERA); remark: listed apart in the source
[39] = target: looped/cyclic peptide … (rabies virus strain ERA); remark: listed apart in the source
[40] = target: looped/cyclic peptide … (rabies virus strain ERA); remark: listed apart in the source
[41] = target: looped/cyclic peptide … (rabies virus strain ERA); remark: listed apart in the source
[42] = target: looped/cyclic peptide … (rabies virus strain ERA); remark: listed apart in the source
[43] = target: looped/cyclic peptide … (rabies virus strain ERA); remark: listed apart in the source
[44] = target: looped/cyclic peptide … (rabies virus strain ERA); remark: listed apart in the source
[45] = target: looped/cyclic peptide … (rabies virus strain ERA); remark: listed apart in the source
[46] = target: looped/cyclic peptide … (rabies virus strain ERA); remark: listed apart in the source
[47] = target: looped/cyclic peptide … (rabies virus strain ERA); remark: listed apart in the source
[48] = target: looped/cyclic peptide … (rabies virus strain ERA); remark: listed apart in the source
[49] = target: looped/cyclic peptide … (rabies virus strain ERA); remark: listed apart in the source
[50] = target: looped/cyclic peptide … (rabies virus strain ERA); remark: listed apart in the source
[51] = target: looped/cyclic peptide … (rabies virus strain ERA); remark: listed apart in the source
[52] = target: looped/cyclic peptide … (rabies virus strain ERA); remark: listed apart in the source
[53] = target: looped/cyclic peptide … (rabies virus strain ERA); remark: listed apart in the source
[54] = target: looped/cyclic peptide … (rabies virus strain ERA); remark: listed apart in the source
[55] = target: looped/cyclic peptide … (rabies virus strain ERA); remark: listed apart in the source
[56] = target: looped/cyclic peptide … (rabies virus strain ERA); remark: listed apart in the source
[57] = target: looped/cyclic peptide … (rabies virus strain ERA); remark: listed apart in the source
[58] = target: looped/cyclic peptide … (rabies virus strain ERA); remark: listed apart in the source
[59] = target: looped/cyclic peptide … (rabies virus strain ERA); remark: listed apart in the source
[60] = target: looped/cyclic peptide … (rabies virus strain ERA); remark: listed apart in the source
[61] = target: looped/cyclic peptide … (rabies virus strain ERA); remark: listed apart in the source
[62] = target: looped/cyclic peptide … (rabies virus strain ERA); remark: listed apart in the source
[63] = target: looped/cyclic peptide … (rabies virus strain ERA); remark: listed apart in the source
[64] = target: looped/cyclic peptide … (rabies virus strain ERA); remark: listed apart in the source
[65] = target: looped/cyclic peptide … (rabies virus strain ERA); remark: listed apart in the source
[66] = target: looped/cyclic peptide … (rabies virus strain ERA); remark: listed apart in the source
[67] = target: looped/cyclic peptide … (rabies virus strain ERA); remark: listed apart in the source
[68] = target: looped/cyclic peptide … (rabies virus strain ERA); remark: listed apart in the source
[69] = target: looped/cyclic peptide … (rabies virus strain ERA); remark: listed apart in the source
[70] = target: looped/cyclic peptide … (rabies virus strain ERA); remark: listed apart in the source
[71] = target: looped/cyclic peptide … (rabies virus strain ERA); remark: listed apart in the source
[72] = target: looped/cyclic peptide … (rabies virus strain ERA); remark: listed apart in the source
[73] = target: looped/cyclic peptide … (rabies virus strain ERA); remark: listed apart in the source
[74] = target: looped/cyclic peptide … (rabies virus strain ERA); remark: listed apart in the source
[75] = target: looped/cyclic peptide … (rabies virus strain ERA); remark: listed apart in the source

B1: human monoclonal antibody CRJB (antibody, V domains shown)
VH: QITLKETGPTLVKPTQTLTLTCTFSGFSLSTSGVGVGWIRQPPGKALEWVTLIYWDDDKRYSPSLENRVTIRKDTSKNQVALTMTNMDPLDTGTYYCAHRQHISSFPWFDSWGQGTLVTVSS
VL: SYVLTQPPSVSVAPGKTARINCGGNNIEYRSVHWYQQKSGQAPVAVIYDNSDRPSGIPERFSGSKSGNTATLTISRVEAGDEADYYCQVWDISSDVVFGGGTKLTVLG
- OD value [1]: 82 OD
- OD value [2]: 69 OD
- OD value [3]: 90 OD
- OD value [4]: 82 OD
- OD value [5]: 92 OD
- OD value [6]: 49 OD
- OD value [7]: 68 OD
- OD value [8]: 88 OD
- OD value [9]: 100 OD
- OD value [10]: 93 OD
- OD value [11]: 96 OD
- OD value [12]: 96 OD
- OD value [13]: 71 OD
- OD value [14]: 82 OD
- OD value [15]: 86 OD
- OD value [16]: 72 OD
- OD value [17]: 107 OD
- OD value [18]: 90 OD
- OD value [19]: 74 OD
- OD value [20]: 84 OD
- OD value [21]: 65 OD
- OD value [22]: 75 OD
- OD value [23]: 33 OD
- OD value [24]: 68 OD
- OD value [25]: 83 OD
- OD value [26]: 73 OD
- OD value [27]: 111 OD
- OD value [28]: 80 OD
- OD value [29]: 71 OD
- OD value [30]: 51 OD
- OD value [31]: 57 OD
- OD value [32]: 74 OD
- OD value [33]: 75 OD
- OD value [34]: 62 OD
- OD value [35]: 80 OD
- OD value [36]: 69 OD
- OD value [37]: 46 OD
- OD value [38]: 83 OD
- OD value [39]: 71 OD
- OD value [40]: 99 OD
- OD value [41]: 59 OD
- OD value [42]: 68 OD
- OD value [43]: 86 OD
- OD value [44]: 65 OD
- OD value [45]: 61 OD
- OD value [46]: 72 OD
- OD value [47]: 72 OD
- OD value [48]: 64 OD
- OD value [49]: 64 OD
- OD value [50]: 74 OD
- OD value [51]: 86 OD
- OD value [52]: 92 OD
- OD value [53]: 68 OD
- OD value [54]: 85 OD
- OD value [55]: 93 OD
- OD value [56]: 76 OD
- OD value [57]: 63 OD
- OD value [58]: 71 OD
- OD value [59]: 77 OD
- OD value [60]: 49 OD
- OD value [61]: 90 OD
- OD value [62]: 60 OD
- OD value [63]: 77 OD
- OD value [64]: 78 OD
- OD value [65]: 71 OD
- OD value [66]: 50 OD
- OD value [67]: 91 OD
- OD value [68]: 64 OD
- OD value [69]: 72 OD
- OD value [70]: 89 OD
- OD value [71]: 78 OD
- OD value [72]: 99 OD
- OD value [73]: 83 OD
- OD value [74]: 73 OD
- OD value [75]: 99 OD
